# B1: MERS-CoV mature nsp7, released from nsp7-11 by SARS-CoV-2 M^pro (natural protein)
# chain: SKLTDLKCTSVVLLSVLQQLHLEANSRAWAFCVKCHNDILAATDPSEAFEKFVSLFATLMTFSGNVDLDALASDIFDTPSVLQ
# Assays:
# [1] = molecular target: SARS-CoV-2 nsp7-11 polyprotein, tag-free with native (authentic) termini (SARS-CoV-2); assay: native MS
# [2] = molecular target: the molecule itself; assay: native MS
Molecule,stoichiometry N [1],stoichiometry N [2]
"SARS-CoV-2 nsp7-11 polyprotein, tag-free with native (authentic) termini (domain or fragment)",2,
B1,,2

# From article PMC12420816 (Nature Communications, 2025)
